Substrate: COC(=O)/C=C/c1ccc(O)c(OC)c1
Experiment: HPLC-UV of released ferulic acid, nonlinear Hill fit
Type: biochemical, Bacillus pumilus
Conditions: 0.1-8 mmol/L substrate, 50 mmol/L Tris-HCl pH 9.0, 50 °C

B1: BpFAE (Bacillus pumilus) (protein)
chain: MNLQEQIKIAASLRQPAEGSLPSQSELKPVHPPEVNKMEYDIPTSAGETKVWIFKPVNTSKQPLPVFVNLHGGGFILGSAEMDNHWCPVIADRAQCIVVNVEYQLAPEHPFPAALHECYDVLKWLYEHPDELQIDPNRVAIGGHSAGGNLATAACLLNIQKGNPVPIVYQVLDYPPLDLATDPAEKPAFEEAIPVEMARLFNAFYLQGQDPHNPLVSPIFADRSSLAQLPPALVITAERDSLAQEAEQYAEKLKEAGVDVTYRQFKGVPHAFTHAGDLEIAEEAWHLMSDQLKKAFE
notes: C-terminal 6xHis tag (removal not mentioned); expressed in B. subtilis WB800 from pMA5 (NdeI/BamHI); forward primer reads […]; (ATG of the NdeI site followed by a second ATG)
B1 showed a Km of 950 µM and a kcat of 514.91 s⁻¹.
